Results: publication PMC5943153 (Molecular microbiology, 2018)
Values joined by “and” are separate entries in the source; they are usually repeats but may differ in a detail not shown here. Identical values can stand only once.

T1: T25-HP0221 (NifU) (Helicobacter pylori strain 26695, UniProt O25009 2-326)
T1 sequence (looked up): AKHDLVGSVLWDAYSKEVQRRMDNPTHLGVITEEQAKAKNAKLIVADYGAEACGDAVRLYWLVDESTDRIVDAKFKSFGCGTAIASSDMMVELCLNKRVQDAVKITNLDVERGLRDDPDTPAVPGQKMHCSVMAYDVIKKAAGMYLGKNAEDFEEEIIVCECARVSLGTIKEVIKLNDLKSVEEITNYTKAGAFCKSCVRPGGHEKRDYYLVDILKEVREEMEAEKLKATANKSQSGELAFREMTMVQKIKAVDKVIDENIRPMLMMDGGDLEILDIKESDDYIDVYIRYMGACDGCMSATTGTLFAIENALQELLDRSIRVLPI

T2: HP0221-T25 (NifU) (Helicobacter pylori strain 26695, UniProt O25009 2-326)
T2 sequence (looked up): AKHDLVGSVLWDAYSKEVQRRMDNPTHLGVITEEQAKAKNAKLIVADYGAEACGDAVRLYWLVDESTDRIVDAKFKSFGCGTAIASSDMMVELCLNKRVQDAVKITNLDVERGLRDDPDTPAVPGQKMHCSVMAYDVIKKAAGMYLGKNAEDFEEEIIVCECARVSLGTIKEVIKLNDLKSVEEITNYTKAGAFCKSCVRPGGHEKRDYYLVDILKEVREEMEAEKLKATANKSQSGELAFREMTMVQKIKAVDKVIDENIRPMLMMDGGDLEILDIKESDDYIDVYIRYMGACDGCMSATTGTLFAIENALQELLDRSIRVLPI

T3: T25-HP1492 (Nfu) (Helicobacter pylori strain 26695, UniProt O26025 2-89)
T3 sequence (looked up): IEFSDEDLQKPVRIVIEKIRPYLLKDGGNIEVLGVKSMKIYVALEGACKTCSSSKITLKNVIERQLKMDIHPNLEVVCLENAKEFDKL


How the values were obtained:
SEC = biological target: the molecule itself; experiment: SEC
T25-HP0221 (NifU) = biological target: T1, T25-HP0221 (NifU); experiment: two-hybrid
HP0221-T25 (NifU) = biological target: T2, HP0221-T25 (NifU); experiment: two-hybrid
T25-HP0220 (NifS) = T25-HP0220 (NifS) (Helicobacter pylori strain 26695, UniProt O25008 2-387); experiment: two-hybrid
T25-HP1492 (Nfu) = biological target: T3, T25-HP1492 (Nfu); experiment: two-hybrid

Binder	stoichiometry N (SEC)	growth OD595 in M63-maltose (T25-HP0221 (NifU)) [OD595]	growth OD595 in M63-maltose (HP0221-T25 (NifU)) [OD595]	growth OD595 in M63-maltose (T25-HP0220 (NifS)) [OD595]	growth OD595 in M63-maltose (T25-HP1492 (Nfu)) [OD595]
Nfu (purified recombinant) (natural protein, Helicobacter pylori strain 26695, UniProt O26025 1-89, looked up) MIEFSDEDLQKPVRIVIEKIRPYLLKDGGNIEVLGVKSMKIYVALEGACKTCSSSKITLKNVIERQLKMDIHPNLEVVCLENAKEFDKL	4 and 2				
T18-HP0207 (natural protein, Helicobacter pylori strain 26695, UniProt O24999 2-368, looked up) LTQEDVLNALKTIIYPNFEKDIVSFGFVKNITLHDDQLGLLIEIPSSSEETSAILRENISKAMQEKGVKALNLDIKTPPKPQAPKPTTKNLAKNIKHVVMISSGKGGVGKSTTSVNLSIALANLNQKVGLLDADVYGPNIPRMMGLQSADVIMDPSGKKLIPLKAFGVSVMSMGLLYDEGQSLIWRGPMLMRAIEQMLSDIIWGDLDVLVVDMPPGTGDAQLTLAQAVPLSAGITVTTPQIVSLDDAKRSLDMFKKLHIPIAGIVENMGSFVCEHCKKESEIFGSNSMSELLEAYHTQILAKLPLEPKVRLGGDRGEPIVISHPNSVSAKIFEKMAQDLSAFLERVKKEKLADNKDIQPTQTHACSH		0.14	0.13	0.23	0.21
NifU (purified recombinant) (natural protein, Helicobacter pylori strain 26695, UniProt O25009 1-326, looked up) MAKHDLVGSVLWDAYSKEVQRRMDNPTHLGVITEEQAKAKNAKLIVADYGAEACGDAVRLYWLVDESTDRIVDAKFKSFGCGTAIASSDMMVELCLNKRVQDAVKITNLDVERGLRDDPDTPAVPGQKMHCSVMAYDVIKKAAGMYLGKNAEDFEEEIIVCECARVSLGTIKEVIKLNDLKSVEEITNYTKAGAFCKSCVRPGGHEKRDYYLVDILKEVREEMEAEKLKATANKSQSGELAFREMTMVQKIKAVDKVIDENIRPMLMMDGGDLEILDIKESDDYIDVYIRYMGACDGCMSATTGTLFAIENALQELLDRSIRVLPI	2				
T18-HP1266 (natural protein, Helicobacter pylori strain 26695, UniProt O25856 2-844, looked up) ITMNINGKTIECQEGQSVLEAARSAGIYIPTICYLSGCSPTVACKMCMVEMDGKRVYSCNTKAKNNATILTNTPTLMDERKSIMQTYDVNHPLECGVCDKSGECELQDMTHLTGVEHQPYAVADDFKALDFWAKALYDPNLCIMCERCVTTCKDNVGENNLKATKADLHAPDKFKDSMSKDAFSVWSRKQKGIISFVGSVPCYDCGECIAVCPVGALSYKDFAYTANAWELKKIHSTCSHCSAGCLISYDVRHFDTLGEESKIFRVLNDFYHNPICGAGRFAFDVSSSPKGSANLKEAQNALKECEAVRIGGDITNEEAFLIERLRKELDFKIYNQEAYRFQQFLKVLGEIKRPSVEEIKTSHLVVTIGSSIKTENPLVRYAINNALKLNKASLIAMHPIKDNALANLCRSSFCITHEVGAEEILLGMLLKMLNIESAALKSLEDSKQNIVDEAALKALEEERKKALEQAEQGCSIGENKAENQEENKTEATTPKEENQEENKTEVKEEKIEVPTKTTYLLLEEAGINLETYEKILALLQKSNNTLLVVGEEIYSHKQAHNIAKMLRLLAQKSAIKLILIPPSANALGIASICQLSEEIFEHEKIVGIRAQGDFTINSDDRVFGKDAASKVDFILPSLNQLEGTITNIEGRVLPLKPALRFEGYDLSDIMQGFGFVEENLIECTHKLPTEAGFKAIEFDYLTNYFANDRVNHRGYLLGTSHFEKSAKECETIECEPIKPLKEKIAFNAYLKYPETQFNNATNKSENLQLKAGVYVSKAFLKKLNKEVGQNITLSKEEEELTGVLYLDESLDQEVFVISPSLLKNHSGFFREGVFDSVDLKEQA				0.16	0.24
T18-HP0220 (natural protein, Helicobacter pylori strain 26695, UniProt O25008 2-387, looked up) LQRIYLDNNATTRIDPKVKEIMDPFLRDHYGNPSSLHQFGTETHPAIAEALDKLYKGINARDIDDVIITSCATESNNWVLKGVYFDECLKKGKNHIVTTVAEHPAVRSTCNFLESLGVEVTYLPINEHGSITAEQVKEAITEKTALVSVMWANNETGLIFPIEEIGAICKEKGVLFHTDAVQAIGKIPVDVLKANADFLSFSAHKFHGPKGIGGLYIRSGVGLTPLFHGGEHMNGRRSGTLNVPYIVGMGEAMKLAVEHLDYEKEVVGKLRDKLEEALLKIPDVMVVGDRIHRVPNTTLVSVRGIEGEAMLWDLNRSNIAASTGSACASEDLEANPVMVAIGASKELAHTAIRLSLSRFNTEAEIDKTIEVFSQAAVRLRNISSSY		0.13	0.11	0.29	0.22
NifS (purified recombinant) (enzyme, Helicobacter pylori strain 26695, UniProt O25008 1-387, looked up) MLQRIYLDNNATTRIDPKVKEIMDPFLRDHYGNPSSLHQFGTETHPAIAEALDKLYKGINARDIDDVIITSCATESNNWVLKGVYFDECLKKGKNHIVTTVAEHPAVRSTCNFLESLGVEVTYLPINEHGSITAEQVKEAITEKTALVSVMWANNETGLIFPIEEIGAICKEKGVLFHTDAVQAIGKIPVDVLKANADFLSFSAHKFHGPKGIGGLYIRSGVGLTPLFHGGEHMNGRRSGTLNVPYIVGMGEAMKLAVEHLDYEKEVVGKLRDKLEEALLKIPDVMVVGDRIHRVPNTTLVSVRGIEGEAMLWDLNRSNIAASTGSACASEDLEANPVMVAIGASKELAHTAIRLSLSRFNTEAEIDKTIEVFSQAAVRLRNISSSY	2				
